Data published in patent US20050282739A1.
Square brackets hold non-standard residues; d marks the D form. Ends that are not written are not given here. pGlu = O=C1CC[C@@H](C(=O)O)N1; Nle = CCCC[C@H](N)C(=O)O

B1: metallopeptide 8-3 (peptide)
peptide: [dF]QWAVGHCLL-NH2
modifications: bridge (positions not given here) via ReOCl3(PPh3)2; also: oxorhenium(V) N3S1 tetradentate complex at Cys 8
B2: metallopeptide 7-1 (peptide)
peptide: XQRLGNQWAVGHLC
modifications: Pyr 1; C-terminal amide; Re complexed at Cys 14
B3: metallopeptide 7-7 (peptide)
peptide: XQRLGNQCAVGHLX
modifications: Pyr 1; Nle 14; C-terminal amide; Re complexed at Cys 8
B4: metallopeptide 6-10 (peptide)
peptide: [pGlu]QRLGCNQWAVGHL[Nle]-NH2
modifications: also: oxorhenium(V) N3S1 chelate at Cys6
B5: metallopeptide 9-5 (peptide)
peptide: [dF]QWACGHLL-NH2
modifications: not fully specified (bridges); printed as D-Phe-Gln-Trp-Ala-Cys-Gly-His-Leu-Leu-NH2; also: Re(V)=O complexed at Cys (N3S1 chelate)
B6: metallopeptide 6-5 (peptide)
peptide: [pGlu]QRLGNQWAVCGHL[Nle]-NH2
modifications: also: Re(V)=O N3S1 chelate at Cys11 (from ReOCl3(PPh3)2)
B7: metallopeptide 7-11 (peptide)
peptide: XQRCGNQWAVGHLX
modifications: Pyr 1; Nle 14; C-terminal amide; Re complexed at Cys 4
B8: metallopeptide 7-5 (peptide)
peptide: XQRLGNQWACGHLX
modifications: Pyr 1; Nle 14; C-terminal amide; Re complexed at Cys 10
B9: metallopeptide 6-12 (peptide)
peptide: [pGlu]QRCLGNQWAVGHL[Nle]-NH2
modifications: also: Re(V)=O N3S1 chelate at Cys4 (from ReOCl3(PPh3)2)
B10: metallopeptide 9-6 (peptide)
peptide: [dF]QWCVGHLL-NH2
modifications: not fully specified (bridges); printed as D-Phe-Gln-Trp-Cys-Val-Gly-His-Leu-Leu-NH2; also: Re(V)=O complexed at Cys (N3S1 chelate)
B11: metallopeptide 8-1 (peptide)
peptide: [dF]QWAVGHLLC-NH2
modifications: bridge (positions not given here) via ReOCl3(PPh3)2; also: oxorhenium(V) N3S1 tetradentate complex at Cys 10
B12: metallopeptide 7-6 (peptide)
peptide: XQRLGNQWCVGHLX
modifications: Pyr 1; Nle 14; C-terminal amide; Re complexed at Cys 9
B13: metallopeptide 9-7 (peptide)
peptide: [dF]QCAVGHLL-NH2
modifications: not fully specified (bridges); printed as D-Phe-Gln-Cys-Ala-Val-Gly-His-Leu-Leu-NH2; also: Re(V)=O complexed at Cys (N3S1 chelate)
B14: metallopeptide 6-2 (peptide)
peptide: XQRLGNQWAVGHLCX
modifications: Pyr 1; Nle 15; C-terminal amide; Re complexed at Cys 14
B15: metallopeptide 8-7 (peptide)
peptide: [dF]QWCAVGHLL-NH2
modifications: not fully specified (bridges); printed as D-Phe-Gln-Trp-Cys-Ala-Val-Gly-His-Leu-Leu-NH2; also: oxorhenium(V) N3S1 tetradentate complex at Cys 4
B16: metallopeptide 6-8 (peptide)
peptide: [pGlu]QRLGNQCWAVGHL[Nle]-NH2
modifications: also: Re(V)=O N3S1 chelate at Cys8 (from ReOCl3(PPh3)2)
B17: metallopeptide 8-5 (peptide)
peptide: [dF]QWAVCGHLL-NH2
modifications: bridge (positions not given here) via ReOCl3(PPh3)2; also: oxorhenium(V) N3S1 tetradentate complex at Cys 6
B18: metallopeptide 7-3 (peptide)
peptide: XQRLGNQWAVGCLX
modifications: Pyr 1; Nle 14; C-terminal amide; Re complexed at Cys 12
B19: metallopeptide 7-4 (peptide)
peptide: XQRLGNQWAVCHLX
modifications: Pyr 1; Nle 14; C-terminal amide; Re complexed at Cys 11
B20: metallopeptide 6-3 (peptide)
peptide: [pGlu]QRLGNQWAVGHCL[Nle]-NH2
modifications: also: Re(V)=O N3S1 chelate at Cys13 (from ReOCl3(PPh3)2)
B21: metallopeptide 7-12 (peptide)
peptide: Ac-AQCLGNQWAVGHL[Nle]-NH2
modifications: also: Re(V)=O N3S1 chelate at Cys3 (from ReOCl3(PPh3)2)
B22: metallopeptide 6-6 (peptide)
peptide: [pGlu]QRLGNQWACVGHL[Nle]-NH2
modifications: also: Re(V)=O N3S1 chelate at Cys10 (from ReOCl3(PPh3)2)
B23: metallopeptide 9-4 (peptide)
peptide: [dF]QWAVCHLL-NH2
modifications: not fully specified (bridges); printed as D-Phe-Gln-Trp-Ala-Val-Cys-His-Leu-Leu-NH2; also: Re(V)=O complexed at Cys (N3S1 chelate)
B24: metallopeptide 6-9 (peptide)
peptide: [pGlu]QRLGNCQWAVGHL[Nle]-NH2
modifications: also: Re(V)=O N3S1 chelate at Cys7 (from ReOCl3(PPh3)2)
B25: metallopeptide 7-9 (peptide)
peptide: XQRLGCQWAVGHLX
modifications: Pyr 1; Nle 14; C-terminal amide; Re complexed at Cys 6
B26: metallopeptide 8-2 (peptide)
peptide: [dF]QWAVGHLCL-NH2
modifications: bridge (positions not given here) via ReOCl3(PPh3)2; also: oxorhenium(V) N3S1 tetradentate complex at Cys 9
B27: metallopeptide 6-13 (peptide)
peptide: Ac-AQCRLGNQWAVGHL[Nle]-NH2
modifications: also: Re(V)=O N3S1 chelate at Cys3 (from ReOCl3(PPh3)2)
B28: metallopeptide 10-1 (peptide)
peptide: [dF]QWAVC[dH]LL-NH2
modifications: bridge (positions not given here) via ReOCl3(PPh3)2; also: oxorhenium(V) N3S1 tetradentate complex at Cys 6
B29: metallopeptide 9-3 (peptide)
peptide: [dF]QWAVGCLL-NH2
modifications: not fully specified (bridges); printed as D-Phe-Gln-Trp-Ala-Val-Gly-Cys-Leu-Leu-NH2; also: Re(V)=O chelate (N3S1) at Cys7
B30: metallopeptide 9-1 (peptide)
peptide: [dF]QWAVGHLC-NH2
modifications: not fully specified (bridges); also: Re(V)=O chelate (N3S1) at Cys9
B31: bombesin parent polypeptide Pyr-Gln-Arg-Leu-Gly-Asn-Gln-Trp-Ala-Val-Gly-His-Leu-Met-NH2 (peptide)
peptide: XQRLGNQWAVGHLM
modifications: not fully specified; pyroglutamic acid (Pyr) 1; C-terminal amide
B32: metallopeptide 6-1 (peptide)
peptide: [pGlu]QRLGNQWAVGHL[Nle]C-NH2
modifications: also: oxorhenium(V) N3S1 chelate at Cys15
B33: metallopeptide 8-8 (peptide)
peptide: [dF]QCWAVGHLL-NH2
modifications: not fully specified (bridges); printed as D-Phe-Gln-Cys-Trp-Ala-Val-Gly-His-Leu-Leu-NH2; also: Re(V)=O chelate (N3S1) at Cys3
B34: metallopeptide 6-7 (peptide)
peptide: [pGlu]QRLGNQWCAVGHL[Nle]-NH2
modifications: also: Re(V)=O N3S1 chelate at Cys9 (from ReOCl3(PPh3)2)
B35: metallopeptide 7-8 (peptide)
peptide: XQRLGNCWAVGHLX
modifications: Pyr 1; Nle 14; C-terminal amide; Re complexed at Cys 7
B36: metallopeptide 6-4 (peptide)
peptide: [pGlu]QRLGNQWAVGCHL[Nle]-NH2
modifications: also: Re(V)=O N3S1 chelate at Cys12 (from ReOCl3(PPh3)2)
B37: metallopeptide 8-6 (peptide)
peptide: [dF]QWACVGHLL-NH2
modifications: not fully specified (bridges); printed as D-Phe-Gln-Trp-Ala-Cys-Val-Gly-His-Leu-Leu-NH2; also: oxorhenium(V) N3S1 tetradentate complex at Cys 5
B38: metallopeptide 9-2 (peptide)
peptide: [dF]QWAVGHCL-NH2
modifications: not fully specified (bridges); printed as D-Phe-Gln-Trp-Ala-Val-Gly-His-Cys-Leu-NH2; also: Re(V)=O chelate (N3S1) at Cys8
B39: metallopeptide 7-2 (peptide)
peptide: XQRLGNQWAVGHCX
modifications: Pyr 1; Nle 14; C-terminal amide; Re complexed at Cys 13
B40: bombesin analog parent polypeptide D-Phe-Gln-Trp-Ala-Val-Gly-His-Leu-Leu-NH2 (peptide)
peptide: [dF]QWAVGHLL-NH2
modifications: N-terminus assumed
SMILES: CC(C)C[C@H](NC(=O)[C@H](CC(C)C)NC(=O)[C@H](Cc1c[nH]cn1)NC(=O)CNC(=O)[C@@H](NC(=O)[C@H](C)NC(=O)[C@H](Cc1c[nH]c2ccccc12)NC(=O)[C@H](CCC(N)=O)NC(=O)[C@H](N)Cc1ccccc1)C(C)C)C(N)=O
B41: metallopeptide 8-4 (peptide)
peptide: [dF]QWAVGCHLL-NH2
modifications: bridge (positions not given here) via ReOCl3(PPh3)2; also: oxorhenium(V) N3S1 tetradentate complex at Cys 7

Each binder was assayed against bombesin receptor of rat brain membranes (rat) (assay: 125I-Bombesin competition, rat brain membranes).

| Binder | % Inhibition [%] |
| --- | --- |
| B1 | 49 |
| B2 | 73 |
| B3 | -2 |
| B4 | 93 |
| B5 | 17 |
| B6 | 67 |
| B7 | 95 |
| B8 | 61 |
| B9 | 97 |
| B10 | 43 |
| B11 | 39 |
| B12 | 91 |
| B13 | 19 |
| B14 | 91 |
| B15 | 8 |
| B16 | 75 |
| B17 | 70 |
| B18 | 82 |
| B19 | 81 |
| B20 | 71 |
| B21 | 96 |

| Binder | % Inhibition [%] |
| --- | --- |
| B22 | 83 |
| B23 | 75 |
| B24 | 91 |
| B25 | 93 |
| B26 | 75 |
| B27 | 99 |
| B28 | 10 |
| B29 | 70 |
| B30 | 86 |
| B31 | 106 |
| B32 | 82 |
| B33 | 62 |
| B34 | 62 |
| B35 | 84 |
| B36 | 70 |
| B37 | 35 |
| B38 | 35 |
| B39 | 66 |
| B40 | 92 |
| B41 | 59 |
